Publication PMC8113479, “Following replicative DNA synthesis by time-resolved X-ray crystallography”

Assays:
[1] = target: T1, Bst DNA polymerase I large fragment (Geobacillus stearothermophilus, UniProt E1C9K5 3-580); test: X-ray crystallography; dATP and dCTP soak, 48 h, product binary complex; Co-crystals; P/T duplex annealed in Bst buffer (50 mM Tris-Cl pH 7.5, 150 mM NaCl, 1 mM EDTA, 10 mM BME) with 20 mM MgCl2; crystallization and soak conditions not in the material; conditions: protein: recombinant; tags: tagless; template 5' overhang 3 nt and 3' overhang 1 nt; 12 bp
[2] = target: T1, Bst DNA polymerase I large fragment; test: X-ray crystallography; 0 min, before dATP soak; Co-crystals; P/T duplex annealed in Bst buffer (50 mM Tris-Cl pH 7.5, 150 mM NaCl, 1 mM EDTA, 10 mM BME) with 20 mM MgCl2; crystallization and soak conditions not in the material; conditions: protein: recombinant; tags: tagless; template 5' overhang 5 nt (GACGT) and 3' overhang 1 nt (A); 10 bp
[3] = target: T1, Bst DNA polymerase I large fragment; test: X-ray crystallography; dATP soak, 120 min, product complex; Co-crystals; P/T duplex annealed in Bst buffer (50 mM Tris-Cl pH 7.5, 150 mM NaCl, 1 mM EDTA, 10 mM BME) with 20 mM MgCl2; crystallization and soak conditions not in the material; conditions: protein: recombinant; tags: tagless; template 5' overhang 4 nt and 3' overhang 1 nt; 11 bp

B1: P+2/T duplex (primer extended by dA and dC in crystallo) (dsDNA)
DNA 1: GCGATCACGTAC
DNA 2: GACGTACGTGATCGCA
B1: binds [1].

B2: P/T duplex (starting primer-template) (dsDNA)
DNA 1: GCGATCACGT
DNA 2: GACGTACGTGATCGCA
B2: binds [2].

B3: P+1/T duplex (primer extended by dA in crystallo) (dsDNA)
DNA 1: GCGATCACGTA
DNA 2: GACGTACGTGATCGCA
B3: binds [3].
